# PMC6445466
# What was measured:
# [1] = target: human C1r, full-length enzyme (human) (UniProt P00736)
# [2] = target: BBK32-C (residues 206-354, B. burgdorferi strain B31) (Borrelia burgdorferi strain B31) (UniProt O50835); test: SPR; Biacore T200, 25°C; borrelial protein immobilised by amine coupling (CMD200M chip); C1 as analyte, two-fold dilution series 0 to 150 nM, 2 min association, 3 min dissociation; HBS-T (20 mM HEPES pH 7.3, 140 mM NaCl, 0.005% Tween-20) with 5 mM CaCl2; 1:1 kinetic fit; triplicate
# [3] = target: BXK32-C (BBK32-C E308K-Q319K-E324Q) (Borrelia burgdorferi strain B31) (UniProt O50835); test: as above
# [4] = target: BAD16-C (residues 204-352, B. afzelii strain PGau) (Borrelia afzelii strain PGau); test: as above
# [5] = target: BBK32(206-348) (residues 206-348, B. burgdorferi strain B31) (Borrelia burgdorferi strain B31) (UniProt O50835); test: as above
# human C1r, full-length enzyme (human), sequence (P00736 18-705): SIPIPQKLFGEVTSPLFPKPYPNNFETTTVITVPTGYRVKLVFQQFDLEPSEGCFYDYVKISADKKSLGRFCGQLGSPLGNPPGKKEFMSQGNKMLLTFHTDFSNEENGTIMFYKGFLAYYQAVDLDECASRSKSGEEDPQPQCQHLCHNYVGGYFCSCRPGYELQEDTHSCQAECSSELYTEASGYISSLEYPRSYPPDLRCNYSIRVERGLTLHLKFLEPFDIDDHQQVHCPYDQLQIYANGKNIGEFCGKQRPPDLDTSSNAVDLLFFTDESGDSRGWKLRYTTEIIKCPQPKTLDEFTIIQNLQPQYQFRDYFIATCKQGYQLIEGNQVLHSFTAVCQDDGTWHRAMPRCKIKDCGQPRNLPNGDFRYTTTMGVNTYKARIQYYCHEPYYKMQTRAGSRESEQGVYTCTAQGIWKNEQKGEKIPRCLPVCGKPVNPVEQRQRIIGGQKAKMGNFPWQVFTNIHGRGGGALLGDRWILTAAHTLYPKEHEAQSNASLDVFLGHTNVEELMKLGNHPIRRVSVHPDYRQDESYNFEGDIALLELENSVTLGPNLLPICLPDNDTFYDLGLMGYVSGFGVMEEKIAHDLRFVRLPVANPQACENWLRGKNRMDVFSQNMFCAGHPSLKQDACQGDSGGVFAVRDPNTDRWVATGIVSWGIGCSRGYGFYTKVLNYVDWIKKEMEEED
Substance,"IC50 of C3b deposition, classical pathway-specific ELISA with normal human serum [1]","IC50 of MAC deposition, classical pathway-specific ELISA with normal human serum [1]",IC50 of classical pathway hemolysis of sensitized sheep red blood cells by human serum [1],Kd [2],koff [2],Kd [3],koff [3],Kd [4],Kd [5],koff [5]
"BAD16-C (residues 204-352, B. afzelii strain PGau) (domain or fragment)",9.6 nM,5.9 nM,55 nM,,,,,,,
human C1 complex (from UniProt P02745 23-245; P02746 28-253; P02747 29-245),,,,6 nM,0.0005 s⁻¹,4.7 nM,3.8e-05 s⁻¹,5.4 nM,5.6 nM,0.00054 s⁻¹
